PMC5037378

Target: Aggrecan (UniProt P13608)
Test: solid phase binding assay (ELISA-type, HRP anti-human IgG Fc, OPD colorimetric)
Conditions: PTPσ-Fc 80 nM, wells coated with aggrecan 10 μg/ml, read off a plot

Sequence of UniProt P13608 (P13608 17-2364): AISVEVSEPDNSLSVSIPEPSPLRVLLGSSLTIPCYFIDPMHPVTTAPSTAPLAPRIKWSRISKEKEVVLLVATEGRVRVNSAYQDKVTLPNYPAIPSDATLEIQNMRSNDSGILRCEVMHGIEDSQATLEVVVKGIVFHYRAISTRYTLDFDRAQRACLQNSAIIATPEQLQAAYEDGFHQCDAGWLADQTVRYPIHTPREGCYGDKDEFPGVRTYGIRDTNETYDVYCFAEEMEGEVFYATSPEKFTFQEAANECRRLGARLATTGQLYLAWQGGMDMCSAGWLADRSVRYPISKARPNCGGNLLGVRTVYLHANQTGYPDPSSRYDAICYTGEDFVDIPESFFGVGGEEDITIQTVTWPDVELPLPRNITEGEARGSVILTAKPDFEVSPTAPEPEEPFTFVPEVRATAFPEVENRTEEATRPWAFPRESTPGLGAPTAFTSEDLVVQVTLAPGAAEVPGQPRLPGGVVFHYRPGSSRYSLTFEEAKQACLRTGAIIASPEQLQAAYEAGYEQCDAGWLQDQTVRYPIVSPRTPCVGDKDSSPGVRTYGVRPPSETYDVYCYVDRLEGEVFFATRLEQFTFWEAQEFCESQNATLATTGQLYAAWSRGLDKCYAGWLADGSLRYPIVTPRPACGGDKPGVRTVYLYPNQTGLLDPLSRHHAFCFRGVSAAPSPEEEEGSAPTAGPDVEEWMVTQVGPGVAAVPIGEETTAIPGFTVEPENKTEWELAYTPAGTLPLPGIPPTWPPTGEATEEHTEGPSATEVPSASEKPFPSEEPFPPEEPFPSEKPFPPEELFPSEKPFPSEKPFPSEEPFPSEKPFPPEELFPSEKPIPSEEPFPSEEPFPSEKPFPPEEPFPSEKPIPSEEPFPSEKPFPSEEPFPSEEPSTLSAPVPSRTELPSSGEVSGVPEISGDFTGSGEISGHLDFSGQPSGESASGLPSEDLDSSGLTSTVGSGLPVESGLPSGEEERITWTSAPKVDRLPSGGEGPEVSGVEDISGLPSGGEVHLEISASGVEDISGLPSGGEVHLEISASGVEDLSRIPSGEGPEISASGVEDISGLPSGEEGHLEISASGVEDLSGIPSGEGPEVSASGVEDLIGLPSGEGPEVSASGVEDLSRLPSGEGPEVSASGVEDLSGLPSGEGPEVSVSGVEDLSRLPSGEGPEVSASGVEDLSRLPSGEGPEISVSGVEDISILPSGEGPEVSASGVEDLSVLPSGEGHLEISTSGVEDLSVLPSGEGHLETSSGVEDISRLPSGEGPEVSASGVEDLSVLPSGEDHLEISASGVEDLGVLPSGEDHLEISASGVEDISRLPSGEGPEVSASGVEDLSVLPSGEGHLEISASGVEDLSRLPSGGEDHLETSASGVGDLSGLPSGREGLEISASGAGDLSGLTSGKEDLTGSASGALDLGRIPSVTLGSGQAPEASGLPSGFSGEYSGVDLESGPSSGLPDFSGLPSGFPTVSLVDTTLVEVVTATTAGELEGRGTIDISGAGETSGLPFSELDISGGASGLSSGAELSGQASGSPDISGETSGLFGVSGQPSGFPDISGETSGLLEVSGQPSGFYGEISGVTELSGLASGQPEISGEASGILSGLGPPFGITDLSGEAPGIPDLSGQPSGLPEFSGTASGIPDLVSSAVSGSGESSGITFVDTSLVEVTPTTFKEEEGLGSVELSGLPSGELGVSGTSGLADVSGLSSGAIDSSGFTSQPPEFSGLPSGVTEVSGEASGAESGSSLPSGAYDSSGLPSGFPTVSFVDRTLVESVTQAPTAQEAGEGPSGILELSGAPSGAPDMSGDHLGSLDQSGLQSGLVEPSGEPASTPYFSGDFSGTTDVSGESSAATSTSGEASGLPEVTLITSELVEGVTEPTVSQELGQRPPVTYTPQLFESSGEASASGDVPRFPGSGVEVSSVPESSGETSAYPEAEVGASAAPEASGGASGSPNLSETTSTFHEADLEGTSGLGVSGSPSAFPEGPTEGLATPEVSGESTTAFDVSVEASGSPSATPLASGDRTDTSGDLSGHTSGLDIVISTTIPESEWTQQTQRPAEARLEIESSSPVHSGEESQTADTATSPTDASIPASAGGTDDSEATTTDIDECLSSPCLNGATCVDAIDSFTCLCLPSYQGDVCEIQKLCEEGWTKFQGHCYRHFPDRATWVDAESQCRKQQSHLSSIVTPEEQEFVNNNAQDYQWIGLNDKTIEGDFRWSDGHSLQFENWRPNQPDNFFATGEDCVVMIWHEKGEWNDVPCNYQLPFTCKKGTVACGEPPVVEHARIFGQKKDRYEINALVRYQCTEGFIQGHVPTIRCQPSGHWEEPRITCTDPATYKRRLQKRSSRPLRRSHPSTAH

With “PTPσ (protein tyrosine phosphatase sigma) N-terminal extracellular part with the three Ig domains, Fc-tagged, wild type (from UniProt B0V2N1) PTPσ mutant (lacks the CS binding site; substitutions not printed)” the response (HB-GAM 0 nM, parent: est. 1.2) was 0.081 A450, the response (HB-GAM 10 nM, parent: est. 0.88) was 0.085 A450 and the response (HB-GAM 20 nM, parent: est. 0.64) was 0.085 A450. The response (HB-GAM 40 nM, parent: est. 0.43) was 0.084 A450, the response (HB-GAM 80 nM, parent: est. 0.31) was 0.083 A450 and the response (HB-GAM 160 nM, parent: est. 0.25) was 0.083 A450. The response (HB-GAM 320 nM, parent: est. 0.23) was 0.084 A450.
